Laboratory results: patent US10456446B2, “Use of human small leucine zipper protein in osteogenesis procedure” (Korea University Research and Business Foundation, priority 2013, dated 2019)

Columns and labels:
[1] = test system: MEF cells; assay: Osteoblast differentiation in MEF cells, alizarin red staining; assay type: cell-based; details: differentiation medium for 8 days
Procedure: Primary human mesenchymal stem cells (MSCs), C3H10T1/2, 293T and MEF cells were cultured in a DMEM to which thermally inactivated 10% FBS and penicillin (100 U/mL)/streptomycin (100 μg/mL) were added. All cell types were cultured in a humidified incubator containing CO2 5% under a temperature condition of 37° C. In order to induce osteoblast differentiation, the medium was exchanged with a DMEM in which 50 μg/mL of ascorbic acid, 10 mM of β-glycerophosphate and 10% FBS were contained for 8 days. The differentiation medium was changed once every two days.
Therefore, in order to characterize a potential role of sLZIP in the transcriptional activity of Runx2 by inhibiting the transcriptional activity of PPARγ2, the transcriptional activity of Runx2 was examined. For this purpose, 293T cells were temporarily transfected with Runx2 (0.5 μg), β-galactosidase (0.1 μg), 6 copies of Runx2 response elements (0.2 μg) and sLZIP at different contents (0.1 μg to 0.5 μg) (FIG. 7A). PPARγ2 (0.5 μg), β-galactosidase, Runx2, 6 copies of Runx2 response elements and sLZIP (0.5 μg) were expressed in the 293T cells (FIG. 7B). 293T cells were temporarily transfected with HDAC3 (0.5 μg), Runx2, β-galactosidase, 6 copies of Runx2 response elements and sLZIP at different contents (0.25 and 0.5 μg) (FIG. 7C). A promoter activity was measured by luciferase analysis. […]

[2] = test system: ATDC5 cells; assay: Chondrocyte differentiation marker mRNA in ATDC5 cells, RT-PCR and real-time PCR; assay type: cell-based; details: sLZIP 0.1 μg to 0.5 μg, in a reaction with insulin
Procedure: According to instructions of the manufacturer, a TRIzol reagent (Invitrogen, Carlsbad, Calif.) was added to directly lyse cells in a culture dish. Accupower RT PreMix (BioNeer, Daejeon, Korea) was used to synthesize cDNA from 2 μg of total RNA. A reaction was performed for 60 minutes at 42° C. and for 5 minutes at 94° C. PCR amplification was performed using oligomers listed in Table 2 and a Hipi PCR Mix Kit (ELPIS). As an internal control group, GAPDH was amplified. A PCR product was subjected to electrophoresis in 1-2% (w/v) agarose gel containing 0.5 μg/mL ethidium bromide. A size of the PCR product was measured by comparing it with 1 kb DNA ladder marker (Invitrogen). An intensity of bands amplified according to RT-PCR was analyzed using MultiImage™ Light Cabinet (version 5.5, Alpha Innotech Corp., San Leandro, Calif.).
Real-time PCR was performed in LightCycler 480 using a SYBR Green Master Mix (Roche, Mannheim, Germany). β-actin was used as an internal control group. A target gene expression level rate with respect to β-actin was calculated using CT method. A Ct value is defined as a PCR cycle number at which a fluorescence signal reaches a fixed target threshold. Experiments were technically repeated three times for each experiment. […]

B1: sLZIP: human small leucine-zipper protein, isoform of LZIP, 354 amino acids, no transmembrane domain, GenBank FJ263669, SEQ ID NO: 1 (protein, listed as Homo sapiens)
chain: MELELDAGDQDLLAFLLEESGDLGTAPDEAVRAPLDWALPLSEVPSDWEVDDLLCSLLSPPASLNILSSSNPCLVHHDHTYSLPRETVSMDLESESCRKEGTQMTPQHMEELAEQEIARLVLTDEEKSLLEKEGLILPETLPLTKTEEQILKRVRRKIRNKRSAQESRRKKKVYVGGLESRVLKYTAQNMELQNKVQLLEEQNLSLLDQLRKLQAMVIEISNKTSSSSMYSSDTRGSLPAEHGVLSRQLRALPSEDPYQLELPALQSEVPKDSTHQWLDGSDCVLQAPGNTSCLLHYMPQAPSAEPPLEWPFPDLFSEPLCRGPILPLQANLTRKGGWLPTGSPSVILQDRYSG
- osteoblast differentiation and bone nodule formation [1]: promoted osteoblast differentiation and bone nodule formation
- expression of chondrocyte differentiation marker genes (Sox9, ColIIIA1) [2]: no influence
